# Laboratory results reported in IntAct's records for PubMed 17363896.
# B1: Kexin (Saccharomyces cerevisiae), P13134 (parent)
# chain: MKVRKYITLCFWWAFSTSALVSSQQIPLKDHTSRQYFAVESNETLSRLEEMHPNWKYEHDVRGLPNHYVFSKELLKLGKRSSLEELQGDNNDHILSVHDLFPRNDLFKRLPVPAPPMDSSLLPVKEAEDKLSINDPLFERQWHLVNPSFPGSDINVLDLWYNNITGAGVVAAIVDDGLDYENEDLKDNFCAEGSWDFNDNTNLPKPRLSDDYHGTRCAGEIAAKKGNNFCGVGVGYNAKISGIRILSGDITTEDEAASLIYGLDVNDIYSCSWGPADDGRHLQGPSDLVKKALVKGVTEGRDSKGAIYVFASGNGGTRGDNCNYDGYTNSIYSITIGAIDHKDLHPPYSEGCSAVMAVTYSSGSGEYIHSSDINGRCSNSHGGTSAAAPLAAGVYTLLLEANPNLTWRDVQYLSILSAVGLEKNADGDWRDSAMGKKYSHRYGFGKIDAHKLIEMSKTWENVNAQTWFYLPTLYVSQSTNSTEETLESVITISEKSLQDANFKRIEHVTVTVDIDTEIRGTTTVDLISPAGIISNLGVVRPRDVSSEGFKDWTFMSVAHWGENGVGDWKIKVKTTENGHRIDFHSWRLKLFGESIDSSKTETFVFGNDKEEVEPAATESTVSQYSASSTSISISATSTSSISIGVETSAIPQTTTASTDPDSDPNTPKKLSSPRQAMHYFLTIFLIGATFLVLYFMFFMKSRRRIRRSRAETYEFDIIDTDSEYDSTLDNGTSGITEPEEVEDFDFDLSDEDHLASLSSSENGDAEHTIDSVLTNENPFSDPIKQKFPNDANAESASNKLQELQPDVPPSSGRS
# partner: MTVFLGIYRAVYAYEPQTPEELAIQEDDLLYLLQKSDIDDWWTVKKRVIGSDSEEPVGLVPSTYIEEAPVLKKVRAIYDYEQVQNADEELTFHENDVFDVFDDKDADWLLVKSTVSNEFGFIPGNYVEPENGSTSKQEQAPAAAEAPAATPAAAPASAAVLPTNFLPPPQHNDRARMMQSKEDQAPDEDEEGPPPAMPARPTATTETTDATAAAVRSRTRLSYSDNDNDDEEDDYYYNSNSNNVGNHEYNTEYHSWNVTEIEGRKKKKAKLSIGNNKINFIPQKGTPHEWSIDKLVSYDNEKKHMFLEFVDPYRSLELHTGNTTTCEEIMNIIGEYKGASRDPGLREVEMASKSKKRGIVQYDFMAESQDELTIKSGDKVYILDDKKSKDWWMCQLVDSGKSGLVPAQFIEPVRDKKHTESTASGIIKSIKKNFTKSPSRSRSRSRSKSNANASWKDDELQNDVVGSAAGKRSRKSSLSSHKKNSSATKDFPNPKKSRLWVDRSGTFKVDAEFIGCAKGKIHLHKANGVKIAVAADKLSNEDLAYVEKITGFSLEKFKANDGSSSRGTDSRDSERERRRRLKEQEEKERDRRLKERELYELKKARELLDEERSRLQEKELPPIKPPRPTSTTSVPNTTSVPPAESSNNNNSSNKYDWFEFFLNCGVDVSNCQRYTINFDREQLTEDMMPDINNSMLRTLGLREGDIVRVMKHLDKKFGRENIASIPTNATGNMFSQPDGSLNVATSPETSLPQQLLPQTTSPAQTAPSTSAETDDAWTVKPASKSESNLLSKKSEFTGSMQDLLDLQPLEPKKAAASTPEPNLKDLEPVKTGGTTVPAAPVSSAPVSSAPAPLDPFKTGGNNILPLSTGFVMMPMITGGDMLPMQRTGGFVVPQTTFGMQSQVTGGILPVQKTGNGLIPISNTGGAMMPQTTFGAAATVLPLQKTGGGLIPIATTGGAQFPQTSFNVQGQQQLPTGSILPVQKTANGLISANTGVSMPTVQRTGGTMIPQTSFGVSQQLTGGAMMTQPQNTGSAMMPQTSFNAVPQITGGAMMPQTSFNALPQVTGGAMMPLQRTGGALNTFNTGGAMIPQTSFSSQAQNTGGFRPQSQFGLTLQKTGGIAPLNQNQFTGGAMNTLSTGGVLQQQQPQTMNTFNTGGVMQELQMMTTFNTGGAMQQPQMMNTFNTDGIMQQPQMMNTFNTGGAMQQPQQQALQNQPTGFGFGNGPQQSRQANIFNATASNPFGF
# B2: Actin cytoskeleton-regulatory complex protein SLA1 (Saccharomyces cerevisiae), P32790 (parent)
# chain: B1 partner
# partner: B1 chain
# Variants of: B1
# Conditions: with sla1_yeast SLA1, P32790
row,Variant,effect of a mutation on the interaction
1,D781A,decreasing interaction

# Variants of: B1
# Conditions: with sla1_yeast SLA1, P32790
# Remark: another data set of the same source
row,Variant,effect of a mutation on the interaction
1,F779A,disrupting interaction

# Variants of: B2
# Conditions: with kex2_yeast KEX2, P13134
row,Variant,effect of a mutation on the interaction
1,K525A,disrupting interaction

# Variants of: B2
# Conditions: with kex2_yeast KEX2, P13134
# Remark: another data set of the same source
row,Variant,effect of a mutation on the interaction
1,K525A,decreasing interaction

# Variants of: B2
# Conditions: with kex2_yeast KEX2, P13134
# Remark: another data set of the same source
row,Variant,effect of a mutation on the interaction
1,F507A,disrupting interaction

# Variants of: B2
# Conditions: with kex2_yeast KEX2, P13134
# Remark: another data set of the same source
row,Variant,effect of a mutation on the interaction
1,I531E,disrupting interaction

# Variants of: B2
# Conditions: with kex2_yeast KEX2, P13134
# Remark: another data set of the same source
row,Variant,effect of a mutation on the interaction
1,V529E,disrupting interaction

# Variants of: B2
# Conditions: with kex2_yeast KEX2, P13134
# Remark: another data set of the same source
row,Variant,effect of a mutation on the interaction
1,V529E,decreasing interaction
